From patent US20130178605A1 (GLENMARK PHARMACEUTICALS S A, published 2013) come the findings set out here.

Assay [1] concerns the target T1, human CD19 cell-surface protein (on Raji cells) (human, UniProt P15391 20-556).
T1 construct: whole, on cells; also called hCD19
T1 sequence (looked up): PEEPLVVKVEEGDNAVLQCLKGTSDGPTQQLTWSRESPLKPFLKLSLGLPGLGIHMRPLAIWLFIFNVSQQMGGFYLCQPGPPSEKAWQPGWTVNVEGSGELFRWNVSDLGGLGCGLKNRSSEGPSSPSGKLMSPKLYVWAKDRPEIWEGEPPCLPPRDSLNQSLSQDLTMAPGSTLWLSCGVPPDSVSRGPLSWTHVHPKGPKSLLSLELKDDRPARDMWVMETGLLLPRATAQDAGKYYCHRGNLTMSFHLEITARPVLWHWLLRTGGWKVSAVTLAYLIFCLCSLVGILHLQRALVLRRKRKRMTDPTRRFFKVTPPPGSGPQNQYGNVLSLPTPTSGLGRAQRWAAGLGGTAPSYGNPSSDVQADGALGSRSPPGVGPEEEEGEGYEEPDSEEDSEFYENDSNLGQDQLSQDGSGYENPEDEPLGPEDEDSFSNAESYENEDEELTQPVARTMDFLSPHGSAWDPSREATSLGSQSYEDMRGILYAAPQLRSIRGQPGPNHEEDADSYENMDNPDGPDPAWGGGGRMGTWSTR
Put plainly: flow cytometry on Raji cells (CD19+ VLA2-), 10 µg/ml, detected by c-myc tag (FIG. 31A) and by His tag (FIG. 31B).

In assay [2] the target is T1, human CD19 cell-surface protein (on …). Put plainly: flow cytometry on Raji cells, detected with mouse anti His tag antibody. Background: In flow cytometry, cells or beads pass a laser one at a time.
Another assay addresses VL-BT beta F405A chain. Briefly: co-expression in HEK293-EBNA, protein-A purification, non-reducing SDS-PAGE scanning densitometry.
Assay [3] has as its target T2, alpha 2 subunit of the human VLA-2 receptor (on HT1080 cells) (human, UniProt P17301 30-1181).
T2 construct: whole, on cells; also called hVLA2
Briefly: flow cytometry on HT1080 cells, detected with mouse anti c-myc tag antibody.

The target of assay [4] is T3, VL-Fc (BTB)-F405A-Y407S chain.
T3 construct: Human IGHG1 Fc chain with the named substitutions (EU numbering), fused to a variable light-chain kappa domain antibody
Put plainly: co-expression in HEK293-EBNA, protein-A purification, non-reducing SDS-PAGE scanning densitometry, impurities omitted.

The target in assay [5] is T4, VL-Fc (BTB)-F405A-K409R chain.
T4 construct: Human IGHG1 Fc chain with the named substitutions (EU numbering), fused to a variable light-chain kappa domain antibody
Described as above.

Assay [6] deals with T5, VL-Fc (BTB)-Y407S-K409R chain.
T5 construct: Human IGHG1 Fc chain with the named substitutions (EU numbering), fused to a variable light-chain kappa domain antibody
The assay is described as above.

The target of assay [7] is T6, VL-Fc (BTB)-F405A-Y407S-K409R chain.
T6 construct: Human IGHG1 Fc chain with the named substitutions (EU numbering), fused to a variable light-chain kappa domain antibody
The assay is described as above.

The target in assay [8] is T7, VL-Fc (BTB)-F405A-Y407S-K409R-T411R chain.
T7 construct: Human IGHG1 Fc chain with the named substitutions (EU numbering), fused to a variable light-chain kappa domain antibody
The assay is described as above.

Another assay has as its target T8, VL-Fc IGHGA chain.
T8 construct: Human IGHG1 Fc chain with CH3 substitutions S364T, K392L, T394W, K409I, T411R (EU numbering), fused to VL
Briefly: co-expression in HEK293-EBNA, protein-A purification, non-reducing SDS-PAGE scanning densitometry.

The target of another assay is VL-BT gamma chain. Described as above.
Assay [9] concerns the target T9, VL-Fc (BTB)-K409R-T411R chain.
T9 construct: Human IGHG1 Fc chain with the named substitutions (EU numbering), fused to a variable light-chain kappa domain antibody
Put plainly: co-expression in HEK293-EBNA, protein-A purification, non-reducing SDS-PAGE scanning densitometry, impurities omitted.

B1: anti-hCD19_anti-hVLA2 bispecific antibody (bispecific antibody, human IgG1, kappa)
heavy 1: QVQLQESGPGLVKPSETLSLTCTVSGFSLTNYGIHWIRQPPGKGLEWLGVIWARGFTNYNSALMSRLTISKDNSKNQVSLKLSSVTAADTAVYYCARANDGVYYAMDYWGQGTLVTVSSASTKGPSVFPLAPSSKSTSGGTAALGCLVKDYFPEPVTVSWNSGALTSGVHTFPAVLQSSGLYSLSSVVTVPSSSLGTQTYICNVNHKPSNTKVDKKVEPKSCDKTHTCPPCPAPELLGGPSVFLFPPKPKDTLMISRTPEVTCVVVDVSHEDPEVKFNWYVDGVEVHNAKTKPREEQYNSTYRVVSVLTVLHQDWLNGKEYKCKVSNKALPAPIEKTISKAKGQPREPQVYTLPPSRDELTKNQVKLVCLVTGFYPSDIAVEWESNGQPENNYYTTPPVLDSDGSFSLVSWLNVDKSRWQQGNVFSCSVMHEALHNHYTQKSLSLSPGKHHHHHH
light 1: DFVMTQSPAFLSVTPGEKVTITCSAQSSVNYIHWYQQKPDQAPKKLIYDTSKLASGVPSRFSGSGSGTDYTFTISSLEAEDAATYYCQQWTTNPLTFGQGTKVEIKRTVAAPSVFIFPPSDEQLKSGTASVVCLLNNFYPREAKVQWKVDNALQSGNSQESVTEQDSKDSTYSLSSTLTLSKADYEKHKVYACEVTHQGLSSPVTKSFNRGEC
heavy 2: QVQLVQSGGGVVQPGRSLRLSCAASGVSLPDYGVSWVRQAPGKGLEWVAVIWGSETTYYNSALKSRFTISRDNSKNTLYLQMNSLRAEDTAVYYCAKHYYYGGSYAMDYWGQGTLVTVSSASTKGPSVFPMAPSSKSTSGGTANLACLVKEYFPEPVTVSWNSGALTSGVFTAPAVLSSSGLYNLVSLVKVPSSSLGTQTYICNVNHKPSNTKVDKKVEPKSCDKTHTCPPCPAPELLGGPSVFLFPPKPKDTLMISRTPEVTCVVVDVSHEDPEVKFNWYVDGVEVHNAKTKPREEQYNSTYRVVSVLTVLHQDWLNGKEYKCKVSNKALPAPIEKTISKAKGQPREPEVATFPPSRDELTKNQVTLVCLVTGFYPSDIAVEWESNGQPENNYKTDPPLLESDGSFALSSRLRVDKSRWQQGNVFSCSVMHEALHNHYTQKSLSLSPGKEQKLISEEDLN
light 2: DIQMTQSPSSLSASVGDRVTITCRASQDISKYLNWYQQKPGKAIKLLIYHTSRLHSGVPSRFSGSGSGTDFTLTISSLQPEDFATYYCQQGATLPYTFGPGTKVDIKRTVAAPKVTIFPPSDEQLKSGTATVLCLLEKFYPREAKVQWKVDNALQSGNSQEGVMEQDSKDSTYMLFSWLTLSKADYEKHKVYACEVTHQGLSSPVTKSFNRGEC
notes: Four distinct chains; also called anti-hCD19_anti-VLA2 bispecific antibody
Take B1: the binding result in [1] is reported as “binds”.

B2: anti-hVLA2 antibody (antibody, human IgG1, kappa, V domains shown)
VH: QVQLQESGPGLVKPSETLSLTCTVSGFSLTNYGIHWIRQPPGKGLEWLGVIWARGFTNYNSALMSRLTISKDNSKNQVSLKLSSVTAADTAVYYCARANDGVYYAMDYWGQGTLVTVSS
VL: DFVMTQSPAFLSVTPGEKVTITCSAQSSVNYIHWYQQKPDQAPKKLIYDTSKLASGVPSRFSGSGSGTDYTFTISSLEAEDAATYYCQQWTTNPLTFGQGTKVEIKR
notes: Control with a single specificity, obtained by co-transfection of chain one with chain two of the bispecific antibody
As to B2, the binding result in assay [2] was “no binding”.

B3: BT alpha IGHG3 chain (other)
chain: DKTHTCPPCPAPELLGGPSVFLFPPKPKDTLMISRTPEVTCVVVDVSHEDPEVKFNWYVDGVEVHNAKTKPREEQYNSTYRVVSVLTVLHQDWLNGKEYKCKVSNKALPAPIEKTISKAKGQPREPQVYTLPPSREEMTKNQVKLVCLVTGFYPSDIAVEWESSGQPENNYYTTPPMLDSDGSFSLVSWLNVDKSRWQQGNIFSCSVMHEALHNRFTQKSLSLSPGK
On to B3, for which the “hetero-dimer percent of the protein-A purified material” value (from here on “hetero-dimer percent”) with VL-BT beta F405A chain is no less than 91%.

B4: anti-hCD19 antibody (antibody, human IgG1, V domains shown)
VH: QVQLVQSGGGVVQPGRSLRLSCAASGVSLPDYGVSWVRQAPGKGLEWVAVIWGSETTYYNSALKSRFTISRDNSKNTLYLQMNSLRAEDTAVYYCAKHYYYGGSYAMDYWGQGTLVTVSS
VL: DIQMTQSPSSLSASVGDRVTITCRASQDISKYLNWYQQKPGKAIKLLIYHTSRLHSGVPSRFSGSGSGTDFTLTISSLQPEDFATYYCQQGATLPYTFGPGTKVDIKR
notes: Control with a single specificity, obtained by co-transfection of chain three with chain four of the bispecific antibody
Take B4: the binding result in assay [3] was “no binding”.

B5: Fc (BTA)-F405S-Y407V-K409W-T411N chain (other)
chain: DKTHTCPPCPAPELLGGPSVFLFPPKPKDTLMISRTPEVTCVVVDVSHEDPEVKFNWYVDGVEVHNAKTKPREEQYNSTYRVVSVLTVLHQDWLNGKEYKCKVSNKALPAPIEKTISKAKGQPREPQVYTLPPSRDELTKNQVSLTCLVKGFYPSDIAVEWESNGQPENNYKTTPPVLDSDGSFSLVSWLNVDKSRWQQGNVFSCSVMHEALHNHYTQKSLSLSPGK
notes: Human IGHG1 Fc chain with the named substitutions (EU numbering)
Take B5: the hetero-dimer formation percentage was 7% in [4]; 4% in assay [5]; 5% in assay [6]; 15% in assay [7]; 9% in assay [8].

B6: Fc IGHAG chain (other)
chain: DKTHTCPPCPAPELLGGPSVFLFPPKPKDTLMISRTPEVTCVVVDVSHEDPEVKFNWYVDGVEVHNAKTKPREEQYNSTYRVVSVLTVLHQDWLNGKEYKCKVSNKALPAPIEKTISKAKGQPREPEVHTLPPSRDELTKNQVSLTCLVRGFYPSDIAVEWESNGQPENNYKTTPPRLESDGSFALTSKLTVDKSRWQQGNVFSCSVMHEALHNHYTQKSLSLSPGK
notes: Human IGHG1 Fc chain with CH3 substitutions Q347E, Y349H, K370R, V397R, D399E, F405A, Y407T (EU numbering)
On to B6, for which the “hetero-dimer percent” value with VL-Fc IGHGA chain was no less than 54%.

B7: BT delta chain (other)
chain: DKTHTCPPCPAPELLGGPSVFLFPPKPKDTLMISRTPEVTCVVVDVSHEDPEVKFNWYVDGVEVHNAKTKPREEQYNSTYRVVSVLTVLHQDWLNGKEYKCKVSNKALPAPIEKTISKAKGQPREPQVYTMPPSRDELTKNQVNLACLVKEFYPSDIAVEWESNGQPENNYFTAPPVLSSDGSFNLVSLLKVDKSRWQQGNVFSCSVMHEALHNHYTQKSLSLSPGK
As to B7, the “hetero-dimer percent” value in the assay with VL-BT gamma chain was no less than 52.1%.

B8: Fc (BTA)-Y407V-K409W-T411N chain (other)
chain: DKTHTCPPCPAPELLGGPSVFLFPPKPKDTLMISRTPEVTCVVVDVSHEDPEVKFNWYVDGVEVHNAKTKPREEQYNSTYRVVSVLTVLHQDWLNGKEYKCKVSNKALPAPIEKTISKAKGQPREPQVYTLPPSRDELTKNQVSLTCLVKGFYPSDIAVEWESNGQPENNYKTTPPVLDSDGSFFLVSWLNVDKSRWQQGNVFSCSVMHEALHNHYTQKSLSLSPGK
notes: as for B5
For B8, the hetero-dimer formation percentage came out at 50% in [4]; 25% in [5]; 25% in [6]; 52% in [7]; 53% in assay [8].

B9: Fc (BTA)-S364K-T366V-K370T-K392Y-K409W-T411N chain (other)
chain: DKTHTCPPCPAPELLGGPSVFLFPPKPKDTLMISRTPEVTCVVVDVSHEDPEVKFNWYVDGVEVHNAKTKPREEQYNSTYRVVSVLTVLHQDWLNGKEYKCKVSNKALPAPIEKTISKAKGQPREPQVYTLPPSRDELTKNQVKLVCLVTGFYPSDIAVEWESNGQPENNYYTTPPVLDSDGSFFLYSWLNVDKSRWQQGNVFSCSVMHEALHNHYTQKSLSLSPGK
notes: as for B5
For the molecule B9, the hetero-dimer formation percentage in assay [4] worked out at 90%; in [5], 60%; in assay [6] it was 74%; in assay [9], 32%; in assay [7] it was 72%; in assay [8], 88%.
